Measurements published in PMC3961655, “Methyllysine Reader Plant Homeodomain (PHD) Finger Protein 20-like 1 (PHF20L1) Antagonizes DNA (Cytosine-5) Methyltransferase 1 (DNMT1) Proteasomal Degradation*” (The Journal of Biological Chemistry, 2014).

Target: endogenous DNMT1 (human (endogenous in HeLa, HEK293, …, UniProt P26358 1-1616))
Test: cell-based or functional assay

endogenous DNMT1 (human, sequence (P26358 whole entry): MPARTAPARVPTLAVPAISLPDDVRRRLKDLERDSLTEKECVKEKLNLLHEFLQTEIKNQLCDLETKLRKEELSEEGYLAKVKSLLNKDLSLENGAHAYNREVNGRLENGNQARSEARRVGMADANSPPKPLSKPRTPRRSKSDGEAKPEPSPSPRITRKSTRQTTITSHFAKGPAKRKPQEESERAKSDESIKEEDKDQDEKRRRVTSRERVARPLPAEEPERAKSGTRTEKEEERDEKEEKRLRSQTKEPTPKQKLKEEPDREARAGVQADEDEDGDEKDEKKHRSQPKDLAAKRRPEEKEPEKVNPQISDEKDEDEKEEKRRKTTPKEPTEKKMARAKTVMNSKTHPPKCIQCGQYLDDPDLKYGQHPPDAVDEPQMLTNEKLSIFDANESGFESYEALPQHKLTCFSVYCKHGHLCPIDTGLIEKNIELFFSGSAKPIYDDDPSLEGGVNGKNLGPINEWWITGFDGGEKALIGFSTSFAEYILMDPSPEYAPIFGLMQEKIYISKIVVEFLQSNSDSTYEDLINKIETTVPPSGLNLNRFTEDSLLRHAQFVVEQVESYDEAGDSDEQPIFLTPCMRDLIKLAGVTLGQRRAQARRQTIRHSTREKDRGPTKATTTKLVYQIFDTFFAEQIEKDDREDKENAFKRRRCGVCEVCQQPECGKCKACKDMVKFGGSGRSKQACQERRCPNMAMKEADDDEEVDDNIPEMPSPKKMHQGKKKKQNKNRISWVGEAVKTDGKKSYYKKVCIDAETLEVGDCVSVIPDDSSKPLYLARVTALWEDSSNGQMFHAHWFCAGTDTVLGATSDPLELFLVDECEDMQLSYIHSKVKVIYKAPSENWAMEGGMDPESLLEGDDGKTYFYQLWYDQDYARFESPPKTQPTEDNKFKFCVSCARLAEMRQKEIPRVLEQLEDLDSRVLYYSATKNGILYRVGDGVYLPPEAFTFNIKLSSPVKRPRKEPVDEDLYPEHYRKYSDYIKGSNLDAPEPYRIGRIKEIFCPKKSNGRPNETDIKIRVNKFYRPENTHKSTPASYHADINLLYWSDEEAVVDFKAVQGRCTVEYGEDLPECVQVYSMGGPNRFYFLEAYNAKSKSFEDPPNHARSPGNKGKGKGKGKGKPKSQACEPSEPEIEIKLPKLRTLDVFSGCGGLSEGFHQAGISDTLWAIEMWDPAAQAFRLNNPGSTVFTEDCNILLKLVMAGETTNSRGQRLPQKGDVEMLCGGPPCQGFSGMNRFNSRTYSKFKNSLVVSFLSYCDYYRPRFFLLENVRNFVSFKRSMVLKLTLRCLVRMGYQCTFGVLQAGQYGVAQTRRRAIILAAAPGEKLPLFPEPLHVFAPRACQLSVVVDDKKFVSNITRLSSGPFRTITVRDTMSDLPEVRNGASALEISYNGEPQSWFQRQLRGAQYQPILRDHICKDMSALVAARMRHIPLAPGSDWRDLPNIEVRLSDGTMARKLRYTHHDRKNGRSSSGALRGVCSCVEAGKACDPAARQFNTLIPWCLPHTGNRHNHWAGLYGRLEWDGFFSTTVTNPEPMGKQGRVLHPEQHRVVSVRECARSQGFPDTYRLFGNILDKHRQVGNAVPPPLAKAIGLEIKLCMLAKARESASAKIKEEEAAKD

half-life of DNMT1 in HeLa cells with cycloheximide, 60 uM UNC1215 (MBT domain inhibitor) against ethanol: ~50%
B1: endogenous PHF20L1a (natural protein, UniProt A8MW92 1-1017, looked up)
chain: MSKKPPNRPGITFEIGARLEALDYLQKWYPSRIEKIDYEEGKMLVHFERWSHRYDEWIYWDSNRLRPLERPALRKEGLKDEEDFFDFKAGEEVLARWTDCRYYPAKIEAINKEGTFTVQFYDGVIRCLKRMHIKAMPEDAKGQVKSQHPLSWCCPIDPAGSCNQSMGSEDWIALVKAAAAAAAKNKTGSKPRTSANSNKDKDKDERKWFKVPSKKEETSTCIATPDVEKKEDLPTSSETFGLHVENVPKMVFPQPESTLSNKRKNNQGNSFQAKRARLNKITGLLASKAVGVDGAEKKEDYNETAPMLEQAISPKPQSQKKNEADISSSANTQKPALLSSTLSSGKARSKKCKHESGDSSGCIKPPKSPLSPELIQVEDLTLVSQLSSSVINKTSPPQPVNPPRPFKHSERRRRSQRLATLPMPDDSVEKVSSPSPATDGKVFSISSQNQQESSVPEVPDVAHLPLEKLGPCLPLDLSRGSEVTAPVASDSSYRNECPRAEKEDTQMLPNPSSKAIADGRGAPAAAGISKTEKKVKLEDKSSTAFGKRKEKDKERREKRDKDHYRPKQKKKKKKKKKSKQHDYSDYEDSSLEFLERCSSPLTRSSGSSLASRSMFTEKTTTYQYPRAILSVDLSGENLSDVDFLDDSSTESLLLSGDEYNQDFDSTNFEESQDEDDALNEIVRCICEMDEENGFMIQCEECLCWQHSVCMGLLEESIPEQYICYICRDPPGQRWSAKYRYDKEWLNNGRMCGLSFFKENYSHLNAKKIVSTHHLLADVYGVTEVLHGLQLKIGILKNKHHPDLHLWACSGKRKDQDQIIAGVEKKIAQDTVNREEKKYVQNHKEPPRLPLKMEGTYITSEHSYQKPQSFGQDCKSLADPGSSDDDDVSSLEEEQEFHMRSKNSLQYSAKEHGMPEKNPAEGNTVFVYNDKKGTEDPGDSHLQWQLNLLTHIENVQNEVTSRMDLIEKEVDVLESWLDFTGELEPPDPLARLPQLKRHIKQLLIDMGKVQQIATLCSV
